The test system of this assay is PPIs identified as affected by the SH3 domain deletions. Kind of assay: Liquid DHFR-PCA low-throughput validation of PPIs affected by SH3 deletion (Fig. S1D-E). The class given is cell-based, Saccharomyces cerevisiae. The settings on record: label = prey, liquid DHFR-PCA, prey _1 = lost, _2 = gained in screen. In short, it runs like this: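 Growth at 30 °C was tracked by OD each 15 min over 72 h in agar-free PCA selection medium, starting at 0.1 OD. Cells were diploids selected after mating, first cultured 48 h with NAT and HPH in synthetic complete MSG medium, pH 6.0.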

B1: YDL160C_1 (protein, UniProt P39517 1-506, looked up)
ATP-dependent RNA helicase …: MGSINNNFNTNNNSNTDLDRDWKTALNIPKKDTRPQTDDVLNTKGNTFEDFYLKRELLMGIFEAGFEKPSPIQEEAIPVAITGRDILARAKNGTGKTAAFVIPTLEKVKPKLNKIQALIMVPTRELALQTSQVVRTLGKHCGISCMVTTGGTNLRDDILRLNETVHILVGTPGRVLDLASRKVADLSDCSLFIMDEADKMLSRDFKTIIEQILSFLPPTHQSLLFSATFPLTVKEFMVKHLHKPYEINLMEELTLKGITQYYAFVEERQKLHCLNTLFSKLQINQAIIFCNSTNRVELLAKKITDLGYSCYYSHARMKQQERNKVFHEFRQGKVRTLVCSDLLTRGIDIQAVNVVINFDFPKTAETYLHRIGRSGRFGHLGLAINLINWNDRFNLYKIEQELGTEIAAIPATIDKSLYVAENDETVPVPFPIEQQSYHQQAIPQQQLPSQQQFAIPPQQHHPQFMVPPSHQQQQAYPPPQMPSQQGYPPQQEHFMAMPPGQSQPQY
For B1, the “Ratio (Deletedscore / WTscore)” value (bait RVS167) is reported as 0.8286.

B2: YML035C_1 (protein, UniProt P15274 1-810, looked up)
AMP deaminase: MDNQATQRLNDLSLEPAPSHDEQDGSGLVIDIDQRKIGDEQAGVVVDDETPPLEQQDSHESLAADSRNANFSYHENQQLLENGTKQLALDEHDSHSAILEQPSHSTNCSSSNIAAMNKGHDSADHASQNSGGKPRTLSASAQHILPETLKSFAGAPVVNKQVRTSASYKMGMLADDASQQFLDDPSSELIDLYSKVAECRNLRAKYQTISVQNDDQNPKNKPGWVVYPPPPKPSYNSDTKTVVPVTNKPDAEVFDFTKCEIPGEDPDWEFTLNDDDSYVVHRSGKTDELIAQIPTLRDYYLDLEKMISISSDGPAKSFAYRRLQYLEARWNLYYLLNEYQETSVSKRNPHRDFYNVRKVDTHVHHSACMNQKHLLRFIKHKLRHSKDEKVIFRDGKLLTLDEVFRSLHLTGYDLSIDTLDMHAHKDTFHRFDKFNLKYNPIGESRLREIFLKTNNYIKGTYLADITKQVIFDLENSKYQNCEYRISVYGRSLDEWDKLASWVIDNKVISHNVRWLVQIPRLYDIYKKTGIVQSFQDICKNLFQPLFEVTKNPQSHPKLHVFLQRVIGFDSVDDESKVDRRFHRKYPKPSLWEAPQNPPYSYYLYYLYSNVASLNQWRAKRGFNTLVLRPHCGEAGDPEHLVSAYLLAHGISHGILLRKVPFVQYLYYLDQVGIAMSPLSNNALFLTYDKNPFPRYFKRGLNVSLSTDDPLQFSYTREPLIEEYSVAAQIYKLSNVDMCELARNSVLQSGWEAQIKKHWIGKDFDKSGVEGNDVVRTNVPDIRINYRYDTLSTELELVNHFANFKRTIEEK
B2: the “Ratio (Deletedscore / WTscore)” value (bait) stood at 0.7244.

B3: YKR082W_1 (protein, UniProt P36161 2-1157, looked up)
Nucleoporin NUP133: SEKKVHLRLRKELSVPIAVVENESLAQLSYEEESQASLMDISMEQQQLRLHSHFDNSKVFTENNRYIVKTLQTDYSSGFSNDDELNGYIDMQIGYGLVNDHKKVYIWNIHSTQKDTPYITVPFRSDDNDEIAVAPRCILTFPATMDESPLALNPNDQDETGGLIIIKGSKAIYYEDINSINNLNFKLSEKFSHELELPINSSGGEKCDLMLNCEPAGIVLSTNMGRIFFITIRNSMGKPQLKLGKLLNKPFKLGIWSKIFNTNSSVVSLRNGPILGKGTRLVYITTNKGIFQTWQLSATNSHPTKLIDVNIYEAILESLQDLYPFAHGTLKIWDSHPLQDESSQLFLSSIYDSSCNETYYILSTIIFDSSSNSFTIFSTYRLNTFMESITDTKFKPKIFIPQMENANDTNEVTSILVMFPNAVVITQVNSKLDSSYSMRRKWEDIVSLRNDIDIIGSGYDSKSLYVLTKQMGVLQFFVKENEETNSKPEVGFVKSHVDQAVYFSKINANPIDFNLPPEISLDQESIEHDLKLTSEEIFHSNGKYIPPMLNTLGQHLSVRKEFFQNFLTFVAKNFNYKISPELKLDLIEKFEILNCCIKFNSIIRQSDVLNDIWEKTLSNYNLTQNEHLTTKTVVINSPDVFPVIFKQFLNHVVFVLFPSQNQNFKLNVTNLINLCFYDGILEEGEKTIRYELLELDPMEVDTSKLPWFINFDYLNCINQCFFDFTFACEEEGSLDSYKEGLLKIVKILYYQFNQFKIWINTQPVKSVNANDNFININNLYDDNHLDWNHVLCKVNLKEQCIQIAEFYKDLSGLVQTLQTLDQNDSTTVSLYETFFNEFPKEFSFTLFEYLIKHKKLNDLIFRFPQQHDVLIQFFQESAPKYGHVAWIQQILDGSYADAMNTLKNITVDDSKKGESLSECELHLNVAKLSSLLVEKDNLDINTLRKIQYNLDTIDAEKNISNKLKKGEVQICKRFKNGSIREVFNILVEELKSTTVVNLSDLVELYSMLDDEESLFIPLRLLSVDGNLLNFEVKKFLNALVWRRIVLLNASNEGDKLLQHIVKRVFDEELPKNNDFPLPSVDLLCDKSLLTPEYISETYGRFPIDQNAIREEIYEEISQVETLNSDNSLEIKLHSTIGSVAKEKNYTINYETNTVEY
As for B3, for the setting “bait RVS167”, the “Ratio (Deletedscore / WTscore)” value is 0.6329.

B4: YDR329C_2 (protein, UniProt P28795 1-441, looked up)
Peroxisomal biogenesis factor …: MAPNQRSRSLLQRHRGKVLISLTGIAALFTTGSVVVFFVKRWLYKQQLRITEQHFIKEQIKRRFEQTQEDSLYTIYELLPVWRMVLNENDLNLDSIVTQLKDQKNQLTRAKSSESRESSPLKSKAELWNELELKSLIKLVTVTYTVSSLILLTRLQLNILTRNEYLDSAIKLTMQQENCNKLQNRFYNWVTSWWSDPEDKADDAMVMAAKKSKKEGQEVYINEQAFLSLSWWILNKGWLSYNEIITNQIEIEFDGIHPRDTLTLEEFSSRLTNIFRNTNSQIFQQNNNNLTSILLPKDSSGQEFLLSQTLDADALTSFHSNTLVFNQLVNELTQCIESTATSIVLESLINESFHFIMNKVGIKTIAKKKPGQEDQQQYQMAVFAMSMKDCCQEMLQTTAGSSHSGSVNEYLATLDSVQPLDDLSASVYSNFGVSSSFSFKP
B4: the “Ratio (Deletedscore / WTscore)” value (bait BEM1-1) was found to be 1.085.

B5: YGL153W_2 (protein, UniProt P53112 2-341, looked up)
Peroxisomal membrane protein …: SDVVSKDRKALFDSAVSFLKDESIKDAPLLKKIEFLKSKGLTEKEIEIAMKEPKKDGIVGDEVSKKIGSTENRASQDMYLYEAMPPTLPHRDWKDYFVMATATAGLLYGAYEVTRRYVIPNILPEAKSKLEGDKKEIDDQFSKIDTVLNAIEAEQAEFRKKESETLKELSDTIAELKQALVQTTRSREKIEDEFRIVKLEVVNMQNTIDKFVSDNDGMQELNNIQKEMESLKSLMNNRMESGNAQDNRLFSISPNGIPGIDTIPSASEILAKMGMQEESDKEKENGSDANKDDNAVPAWKKAREQTIDSNASIPEWQKNTAANEISVPDWQNGQVEDSIP
With B5, the “Ratio (Deletedscore / WTscore)” value (bait BEM1-1) worked out at 1.295.

B6: YGL060W_1 (protein, UniProt P53169 1-641, looked up)
YAP1-binding protein 2: MYNEQVNSGKSIKEKERYLDALLKILKDNPVTLKEIGWDLPKGLLQFFSRKNINVNIHLVFSPLVSSVMECFNELAINGNPKECLLTACELVSTLHIVLTETGDSDEENEDLNDSNRNDASNITDELSVITPEIGHYMAKNTVEFIPNLKIYVLFEFMSLLLKRVDTLYPSKFLAMVTSAIIKYVTTNVQAMDDPHFILRIVYNFCTNYSPAQPSASLTDGISTNDLEKIHDDESALQKKLLANLSVFVISNCLKNHPGNIDKIYFKTLMHKKTDENEIDASVLQICHQYYEYVTSLDVHMKELLEKCLVESRSIYNSLLMNPAASTPEFKEEINQLVYEVSYAYQIKKLADEKNLELDQYGVVILSAIHYSKNGTHLLPQIDIQSAIYLYLRCTTASLFSEIYENKFLESSVRYWLWVSTTETSTEKIKCALQELPGHITTAFLQMLLMKTCNESNNDTKLTEITLLRRLLYLMPESTSFTFIFETLLHCPYITAKIAVLDILRDMMIRSPEAANRDETVGLIEQQNPGNTANSVPIMPTLPPRPYITINEDRMASIHSIALICFSAAKQKKRTQGDLLLVLTYMKFFVSLRNKWDLGLLTLINKEISESFQGEGEPELAFINISNNTLGEYIEEMNIRS
As for B6, for the setting “bait RVS167”, the “Ratio (Deletedscore / WTscore)” value came out at 0.4505.

Source of the values: paper PMC7954794, “Protein context shapes the specificity of SH3 domain-mediated interactions in vivo” (Nature Communications, 2021).
